Source: the supplement of paper PMC7125110
± gives the standard error. This sample holds only a part of the variants without activity.

B1: glmS ribozyme (parent)
chain: AUAAAAGCGCCAGAACUACAGAAAUGUAGUUGACGAGGAGGAGGUUUAUCGAAUUUUCGGCGGAUGCCUCCAAA

What was measured:
Settings in all cases: with glucosamine-6-phosphate
glucosamine-6-phosphate [1] = variants of: B1; assay: self-cleavage kobs at 640 uM GlcN6P; higher = faster cleavage; RNA array
Procedure, shortened: (§1)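 Glucosamine-6-phosphate (40 μM to 10 mM) in HEPES/KCl/Mg(OAc)2 buffer was flowed over sequenced MiSeq chips, and tiles were imaged over ~14 h. Barcoded ribozyme variants there had been transcribed in situ by E. coli RNA polymerase and were tracked through a hybridised Cy3 probe at 37 °C. One- or two-exponential decay fits to per-tile medians, normalised to baseline and to non-cleaving reference variants, gave kobs. kcat and KM came from weighted Michaelis–Menten fits across concentrations.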

glucosamine-6-phosphate [2] = variants of: B1; assay: self-cleavage kobs at 2500 uM GlcN6P; higher = faster cleavage; RNA array
Procedure, shortened: as §1

glucosamine-6-phosphate [3] = variants of: B1; assay: self-cleavage kobs at 10000 uM GlcN6P; higher = faster cleavage; RNA array
Procedure, shortened: as §1

| Variant | self-cleavage kobs at 640 uM GlcN6P (glucosamine-6-phosphate [1]) | self-cleavage kobs at 2500 uM GlcN6P (glucosamine-6-phosphate [2]) | self-cleavage kobs at 10000 uM GlcN6P (glucosamine-6-phosphate [3]) |
| --- | --- | --- | --- |
| G9C A15C A53U | < 1e-05 s⁻¹ |  |  |
| A6U A33G U69G | 9.46e-05 ± 3.6e-05 s⁻¹ | 0.000191 ± 6.5e-05 s⁻¹ |  |
| U49C U55C | < 1e-05 s⁻¹ | < 1e-05 s⁻¹ |  |
| C34A G35A A42G | < 1e-05 s⁻¹ | < 1e-05 s⁻¹ |  |
| G13A U57A A64C C68A | 0.000763 ± 0.00019 s⁻¹ |  |  |
| G35A U47A C50G U54G | 0.000171 ± 6.3e-05 s⁻¹ | 0.000152 ± 4.7e-05 s⁻¹ |  |
| C16G A33U A52U C61U C71U | < 1e-05 s⁻¹ |  |  |
| A15C A36C G41U | < 1e-05 s⁻¹ |  |  |
| C11U G44U C70G | < 1e-05 s⁻¹ |  |  |
| C8A G44C U46A | < 1e-05 s⁻¹ | < 1e-05 s⁻¹ |  |
| U30G U45C C71A | 3.43e-05 ± 1.1e-05 s⁻¹ | 8.42e-05 ± 2e-05 s⁻¹ |  |
| G41C G51U A64C | < 1e-05 s⁻¹ | < 1e-05 s⁻¹ |  |
| C50U G63U C68G | 0.000126 ± 5e-05 s⁻¹ | 7.59e-05 ± 3.2e-05 s⁻¹ |  |
| C10A C61G C67G | 0.00401 ± 0.0011 s⁻¹ |  |  |
| G41U A48U A64C | < 1e-05 s⁻¹ | < 1e-05 s⁻¹ |  |
| C11G G29C G59C | < 1e-05 s⁻¹ |  |  |
| G32U G38U | < 1e-05 s⁻¹ | < 1e-05 s⁻¹ |  |
| A14U A15G C16A A52U A53U | < 1e-05 s⁻¹ |  |  |
| G59C A64G U69G | < 1e-05 s⁻¹ |  |  |
| U54A G66A C71U | 0.00501 ± 0.00099 s⁻¹ |  |  |
| G35C A36U G40A | < 1e-05 s⁻¹ | < 1e-05 s⁻¹ |  |
| C8G G32A U46C A53U G63C | < 1e-05 s⁻¹ | < 1e-05 s⁻¹ |  |
| A36G G41A C61G C71U | < 1e-05 s⁻¹ | < 1e-05 s⁻¹ |  |

| Variant | self-cleavage kobs at 640 uM GlcN6P (glucosamine-6-phosphate [1]) | self-cleavage kobs at 2500 uM GlcN6P (glucosamine-6-phosphate [2]) | self-cleavage kobs at 10000 uM GlcN6P (glucosamine-6-phosphate [3]) |
| --- | --- | --- | --- |
| G32A U57G U69G | 0.000252 ± 0.00011 s⁻¹ |  |  |
| G13C U46A G66A C70A | < 1e-05 s⁻¹ |  |  |
| A36U A42C U47A | < 1e-05 s⁻¹ | < 1e-05 s⁻¹ |  |
| C8G G32U | < 1e-05 s⁻¹ | < 1e-05 s⁻¹ |  |
| G9C A33G G35A G63U | < 1e-05 s⁻¹ |  |  |
| G32U G35A U55G C68A | < 1e-05 s⁻¹ | < 1e-05 s⁻¹ |  |
| A14G G35A G43A C61U | < 1e-05 s⁻¹ |  |  |
| G32A G44U A53C | < 1e-05 s⁻¹ | < 1e-05 s⁻¹ |  |
| U31C G60A U69A | < 1e-05 s⁻¹ |  |  |
| G7A G43A U55A G60U C67U C70G | < 1e-05 s⁻¹ |  |  |
| A12C U30C U57G U65C | < 1e-05 s⁻¹ |  |  |
| G7U A14U A52C C68A | 0.00249 ± 0.001 s⁻¹ |  |  |
| G41U G59U G63U | < 1e-05 s⁻¹ |  |  |
| C11G G60U A64U | < 1e-05 s⁻¹ | < 1e-05 s⁻¹ |  |
| A14G A36U C68A | < 1e-05 s⁻¹ | 0.00425 ± 0.0019 s⁻¹ |  |
| A53U C58G C68U | 9.02e-05 ± 3.1e-05 s⁻¹ |  |  |
| G13C G35U A52U | < 1e-05 s⁻¹ |  |  |
| A52C A53C U55C C67G | < 1e-05 s⁻¹ | < 1e-05 s⁻¹ |  |
| A42C A52U A64G | < 1e-05 s⁻¹ | < 1e-05 s⁻¹ |  |
| C10G G40U C71U | < 1e-05 s⁻¹ | < 1e-05 s⁻¹ |  |
| A6G U57A C68G | 7.18e-05 ± 2.3e-05 s⁻¹ |  |  |
| A12G C50G C71G | 0.000415 ± 0.00014 s⁻¹ | 0.000636 ± 0.00027 s⁻¹ |  |
| U31G U55A U69G | 7.53e-05 ± 1.6e-05 s⁻¹ | 7.74e-05 ± 2.2e-05 s⁻¹ |  |

| Variant | self-cleavage kobs at 640 uM GlcN6P (glucosamine-6-phosphate [1]) | self-cleavage kobs at 2500 uM GlcN6P (glucosamine-6-phosphate [2]) | self-cleavage kobs at 10000 uM GlcN6P (glucosamine-6-phosphate [3]) |
| --- | --- | --- | --- |
| G38A A42U G60U C71G | < 1e-05 s⁻¹ |  |  |
| G26U A42U | 6.28e-05 ± 1.6e-05 s⁻¹ | 0.000124 ± 2.5e-05 s⁻¹ |  |
| U31A A42U G59U | < 1e-05 s⁻¹ |  |  |
| C11U G37A U57G G63A | < 1e-05 s⁻¹ |  |  |
| U30G A39U U45G | 0.000324 ± 5.9e-05 s⁻¹ | 0.00055 ± 0.0001 s⁻¹ | 0.0014 ± 0.00018 s⁻¹ |
| C16A A36G U65G C71U | < 1e-05 s⁻¹ |  |  |
| A1U U2G A3G C70A | 0.000245 ± 0.00011 s⁻¹ |  |  |
| A12G G43C A53G | < 1e-05 s⁻¹ | < 1e-05 s⁻¹ |  |
| G9A U55C | < 1e-05 s⁻¹ | < 1e-05 s⁻¹ |  |
| G29C U56A C67G | 4.47e-05 ± 2.1e-05 s⁻¹ | 7.09e-05 ± 2e-05 s⁻¹ |  |
| U47G G51U | < 1e-05 s⁻¹ |  |  |
| C10U A33G G40U | < 1e-05 s⁻¹ |  |  |
| U45C A48C G63U | < 1e-05 s⁻¹ | < 1e-05 s⁻¹ |  |
| G35U C67A U69C | < 1e-05 s⁻¹ |  |  |
| G29C U54G C70G | 7.66e-05 ± 3.1e-05 s⁻¹ |  |  |
| G38C U55A A64C | < 1e-05 s⁻¹ |  |  |
| A36C G60C | < 1e-05 s⁻¹ |  |  |
| C11U A15U U57G C58U C67U | 0.00016 ± 4e-05 s⁻¹ | 0.000131 ± 4.9e-05 s⁻¹ |  |
| G37A A64G C67G | < 1e-05 s⁻¹ |  |  |
| A14G G35U | < 1e-05 s⁻¹ | < 1e-05 s⁻¹ |  |
| A39U U55C U65G | 0.000491 ± 0.00014 s⁻¹ | 0.00164 ± 0.00045 s⁻¹ |  |
| G35C U54G | < 1e-05 s⁻¹ | < 1e-05 s⁻¹ |  |
